Measured values taken from PMC314469, “Protein Interaction Networks by Proteome Peptide Scanning” (PLoS Biology, 2004).

T1: Yhr016c SH3 (YSC84_YEAST), P32793
T1 chain: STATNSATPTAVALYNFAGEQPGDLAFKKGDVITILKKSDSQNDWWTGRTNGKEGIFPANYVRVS

T2: Boi2 SH3 (BOI2_YEAST), P39969
T2 chain: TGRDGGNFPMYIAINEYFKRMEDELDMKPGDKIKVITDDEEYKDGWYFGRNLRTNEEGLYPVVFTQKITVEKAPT

T3: Rvs167 SH3 (RV167_YEAST), P39743
T3 chain: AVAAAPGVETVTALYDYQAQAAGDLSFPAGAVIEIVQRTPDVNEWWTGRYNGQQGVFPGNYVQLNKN

T4: Yfr024 SH3 (LSB3_YEAST), P43603
T4 chain: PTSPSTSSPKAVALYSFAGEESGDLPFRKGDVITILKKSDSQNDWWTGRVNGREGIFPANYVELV

T5: Boi1 SH3 (BOI1_YEAST), P38041
T5 chain: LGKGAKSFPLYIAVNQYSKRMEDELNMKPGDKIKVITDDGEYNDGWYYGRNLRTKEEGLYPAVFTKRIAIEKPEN


Key:
Assay in all cases: SPOT array
[1] = target: T1, Yhr016c SH3 (YSC84_YEAST), P32793
[2] = target: T2, Boi2 SH3 (BOI2_YEAST), P39969
[3] = target: T3, Rvs167 SH3 (RV167_YEAST), P39743
[4] = target: T4, Yfr024 SH3 (LSB3_YEAST), P43603
[5] = target: T5, Boi1 SH3 (BOI1_YEAST), P38041

Binder	normalised SPOT signal, Boehringer light units (BLU); mean over the file's lines of this peptide [1]	normalised SPOT signal, Boehringer light units (BLU); mean over the file's lines of this peptide [2]	normalised SPOT signal, Boehringer light units (BLU); mean over the file's lines of this peptide [3]	normalised SPOT signal, Boehringer light units (BLU); mean over the file's lines of this peptide [4]	normalised SPOT signal, Boehringer light units (BLU); mean over the file's lines of this peptide [5]
QEKPLTPLKYTKLI [YHL025W 160-173]	7.1	28.6	99.4	929	78
QAHPPKPKRREGDI [YKR050W 402-415]	740	38.2	41.1	9260	133
PVYPSLPERSKVIL [YGR099W 44-57]	21100	34	4000	24100	40.1
QGQPLPPPRGQVIL [YBR108W 287-300]	16000	83.2	8250	22700	231
PVDPTTPVKLGPGI [YOL142W 12-25]	179	21.4	19	-0	40.5
PTAPNSPIKLGRRK [YIL112W 218-231]	175	68.2	11.6	547	135
PSNPALPKKLLNVP [YGL197W 345-358]	87.4	78.6	27.9	1030	28.7
QETPIIPKRIIHYS [YLR030W 11-24]	7820	246	625	15200	4800
QAAPRNPNKDATIA [YOR363C 59-72]	46.6	10.5	40.7	8.2	78.3
PTTPGYPSKDSDTE [YJR126C 341-354]	25	27.1	45.8	139	40.3
QGLPASPSRAALRY [YBR038W 55-68]	104	57.8	62.5	522	1720
PRGPLSPKKHVLPI [YPR107C 47-60]	204	1.8	29.4	289	110
QGEPLDPKRPSTAS [YGL027C 141-154]	418	23.1	45.6	440	51.9
PSAPKVPFKTLDSF [YNL315C 113-126]	176	43	37	284	75.4

Results, then the binder that gave them:

normalised SPOT signal, Boehringer light units (BLU); mean over the file's lines of this peptide [1]	normalised SPOT signal, Boehringer light units (BLU); mean over the file's lines of this peptide [2]	normalised SPOT signal, Boehringer light units (BLU); mean over the file's lines of this peptide [3]	normalised SPOT signal, Boehringer light units (BLU); mean over the file's lines of this peptide [4]	normalised SPOT signal, Boehringer light units (BLU); mean over the file's lines of this peptide [5]	Binder
181	49	18.5	218	91	PRRPNEPGKGMKWR [YNL068C 402-415]
0	134	59.3	8640	347	PTPPSPPAKRIPRS [YPR171W 305-318]
601	68.9	90	1580	427	QFVPIAPQRLNMIF [YMR247C 1015-1028]
48.6	5.8	30.7	381	88	PVGPKVPAKEPSPK [YEL043W 874-887]
391	775	391	1610	14300	PQLPKSPSRYSLSR [YKL101W 622-635]
16000	31.1	944	8330	36.2	PYPPSLPSRDLYEV [YLL028W 113-126]
0	42.6	4.7	26.9	51.6	QDSPDMPEKESVYV [YER179W 310-323]
64000	23	18500	36100	63.2	QGPPNLPARDKSLV [YLL023C 9-22]
